# ± gives the standard error.
# B1: library; numbered along this chain (parent)
# chain: MATDAALRRLLRLHRTEIAVAVDSAFPLLHALADHDVVPEDKFQETLHLKEKEGCPQAFHALLSWLLTQDSTAILDFWRVLFKDYNLERYGRLQPILDSFPKDVDLSQPRKGRKPPAVPKALVPPPRLPTKRKASEEARAAAPAALTPRGTASPGSQLKAKPPKKPESSAEQQRLPLGNGIQTMSASVQRAVAMSSGDVPGARGAVEGILIQQVFESGGSKKCIQVGGEFYTPSKFEDSGSGKNKARSSSGPKPLVRAKGAQGAAPGGGEARLGQQGSVPAPLALPSDPQLHQKNEDECAVCRDGGELICCDGCPRAFHLACLSPPLREIPSGTWRCSSCLQATVQEVQPRAEEPRPQEPPVETPLPPGLRSAGEEVRGPPGEPLAGMDTTLVYKHLPAPPSAAPLPGLDSSALHPLLCVGPEGQQNLAPGARCGVCGDGTDVLRCTHCAAAFHWRCHFPAGTSRPGTGLRCRSCSGDVTPAPVEGVLAPSPARLAPGPAKDDTASHEPALHRDDLESLLSEHTFDGILQWAIQSMARPAAPFPS
# Variants of: B1
# Assay: AIRE transcriptional activation functional score (insulin promoter-GFP; nonsense median 0, synonymous median 1) (normalised score); higher = higher AIRE activity (more reporter activation)
# Details: with insulin promoter-GFP reporter in HEK293
# Protocol: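 Deep mutational scan of full-length human AIRE (codon-optimized cDNA, DT-POPCode NNN libraries over three regions) integrated at a Bxb1 landing pad in HEK293 cells carrying an insulin core promoter-GFP reporter at a Flp-In site. Cells were sorted for the top 10% GFP about 14 days after transfection. Variant frequency log-ratios (select vs non-select, TileSeq) were rescaled so that the nonsense median is 0 and the synonymous median is 1, then averaged over biological replicates.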
row,Variant,AIRE transcriptional activation functional score
1,S372C,1.31 ± 0.069
2,E270R,0.723 ± 0.14
3,E270T,0.69 ± 0.38
4,D238P,1.5 ± 0.35
5,T390Q,0.868 ± 0.086
6,L7F,-0.323 ± 0.33
7,L7W,0.0852 ± 0.06
8,G313Y,1.16 ± 0.26
9,H512R,0.445 ± 0.22
10,L177N,0.575 ± 0.061
11,L177K,1.09 ± 0.27
12,C311Q,0.783 ± 0.088
13,E51C,-0.0446 ± 0.41
14,E51I,-1.54 ± 0.37
15,E136R,-0.203 ± 0.43
16,E136V,0.704 ± 0.44
17,E136A,1.16 ± 0.46
18,E136M,0.441 ± 0.041
19,A144F,1.26 ± 0.26
20,D76S,0.371 ± 0.14
21,D76A,0.43 ± 0.44

row,Variant,AIRE transcriptional activation functional score
1,C449R,0.252 ± 0.31
2,N244H,0.405 ± 0.17
3,P490I,1.17 ± 0.38
4,L97Q,-0.412 ± 0.14
5,V256M,0.911 ± 0.082
6,Q534L,0.314 ± 0.14
7,E353S,1.14 ± 0.19
8,E353P,1.12 ± 0.19
9,A429E,0.833 ± 0.28
10,D98T,-0.235 ± 0.47
11,R356D,1.05 ± 0.19
12,P315G,0.618 ± 0.35
13,P315K,0.481 ± 0.29
14,E137K,0.00389 ± 0.35
15,S234E,0.552 ± 0.23
16,S234G,1.16 ± 0.21
17,P368T,0.983 ± 0.41
18,A540H,0.844 ± 0.43
19,A540R,0.119 ± 0.26
20,S411Y,1.06 ± 0.14
21,S411D,0.711 ± 0.24

row,Variant,AIRE transcriptional activation functional score
1,C437G,0.0855 ± 0.11
2,Y90S,-0.169 ± 0.5
3,Y90C,0.198 ± 0.28
4,A343Q,0.485 ± 0.071
5,P56H,0.985 ± 0.52
6,T504W,1.23 ± 0.072
7,L93Q,-0.189 ± 0.28
8,G91P,0.488 ± 0.62
9,G91A,0.266 ± 0.29
10,A403S,0.725 ± 0.4
11,L63I,0.588 ± 0.7
12,V301E,1.05 ± 0.057
13,E359P,0.935 ± 0.33
14,E359C,1.11 ± 0.15
15,S156M,0.855 ± 0.078
16,S156D,0.928 ± 0.48
17,G219S,0.761 ± 0.29
18,E347M,1.06 ± 0.099
19,E347F,1.28 ± 0.059
20,E347N,0.719 ± 0.25
21,R328Q,0.659 ± 0.048

row,Variant,AIRE transcriptional activation functional score
1,G274Y,1.07 ± 0.028
2,L146S,1.03 ± 0.42
3,G269P,1.44 ± 0.093
4,S24F,0.0274 ± 0.26
5,A271S,1.09 ± 0.17
6,D70V,-0.0452 ± 0.4
7,G408V,0.743 ± 0.1
8,N427M,1.81 ± 0.08
9,C472R,0.0742 ± 0.14
10,C472P,-0.298 ± 0.19
11,C472F,0.226 ± 0.17
12,L255Q,1.01 ± 0.26
13,T334I,0.977 ± 0.26
14,T334Q,0.621 ± 0.44
15,P266L,0.925 ± 0.17
16,A121L,1.09 ± 0.22
17,A141I,0.758 ± 0.28
18,S195Y,0.427 ± 0.11
19,V279R,1.04 ± 0.18
20,T16S,-0.287 ± 0.29
